{"source": "patent US20120225464A1", "about": "“Specific Arabinose Transporter of the Plant Arabidopsis Thaliana for the Construction of Pentose-Fermenting Yeasts” (priority 2011, published 2012)", "type_in_all_cases": "cell-based, S. cerevisiae", "key": {"[1]": {"target": "T1, Gal2 (Saccharomyces cerevisiae, UniProt P13181)", "T1 construct": "expressed in transfected cells; host or cells: S. cerevisiae strain MKY06 (all hexose transporters incl. gal2 deleted)", "T1 sequence (P13181 1-574)": "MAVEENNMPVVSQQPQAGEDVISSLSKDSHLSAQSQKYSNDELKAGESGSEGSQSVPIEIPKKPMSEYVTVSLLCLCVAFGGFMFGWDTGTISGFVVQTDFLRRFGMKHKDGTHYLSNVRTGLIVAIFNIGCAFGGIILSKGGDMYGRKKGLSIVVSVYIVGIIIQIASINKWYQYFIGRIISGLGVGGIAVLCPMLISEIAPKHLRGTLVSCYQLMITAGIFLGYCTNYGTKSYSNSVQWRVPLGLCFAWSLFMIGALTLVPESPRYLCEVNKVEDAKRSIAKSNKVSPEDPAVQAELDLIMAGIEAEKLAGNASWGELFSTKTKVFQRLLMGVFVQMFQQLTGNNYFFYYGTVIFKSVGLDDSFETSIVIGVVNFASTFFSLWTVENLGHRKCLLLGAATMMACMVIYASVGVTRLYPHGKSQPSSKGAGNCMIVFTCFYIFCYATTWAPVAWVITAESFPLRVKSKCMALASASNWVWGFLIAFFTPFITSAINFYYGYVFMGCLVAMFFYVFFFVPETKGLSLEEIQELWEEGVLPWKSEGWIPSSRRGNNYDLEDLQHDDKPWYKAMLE", "assay": "Inhibition of Gal2-mediated L-arabinose uptake by added sugar", "conditions": "addition of 10 mM of the sugar", "experimental": "(§1) The initial rates of sugar uptake were measured as follows: a 50-0 aliquot of a sugar solution containing (1-^3H)-labeled L-arabinose, (U-^14C) labeled O-glucose (American Radiolabeled Chemicals Inc.) or (1-^14C) labeled D-galactose (Amersham) was incubated at 30° C. and was mixed with 100 μl of yeast suspensions having the same temperature, resulting in final sugar concentrations of 10 mM L-arabinose, D-glucose and D-galactose. For determination of L-arabinose uptake kinetics 0.1, 1, 5, 10, and 50 mM L-arabinose were used. After different time intervals 10 ml of ice-cold 100 mM potassium phosphate buffer at pH 6.5 with 500 mM. D-glucose was added, and the suspension was immediately filtrated using Durapore® membrane filters (0.22 μm pore size, Millipore). The filter was washed two times with 10 ml of cold potassium phosphate buffer with 500 mM D-glucose. […] Rotiszint® eco plus (Roth) and the radioactivity measured in a scintillation counter. Uptake of radioactivity was nearly linear in time intervals up to 2 minutes. […] Dry weight was determined by filtering 10 ml of the culture through a pre-weighted nitrocellulose filter (0.45 μm pore size; Roth, Germany). […] KM and vmax values were calculated using the program GraphPad Prism 5.0.\n(§2) For L-arabinose, uptake kinetics were determined by measuring L-arabinose uptake at various concentrations between 0.1 and 50 mM during 2-minute time intervals. […]"}, "[2]": {"target": "T2, Stp2 (Arabidopsis thaliana, UniProt Q9LNV3)", "T2 construct": "The open reading frame (ORF) of AtStp2 was amplified and cloned behind the shortened strong HXT7 promoter; expressed in transfected cells; host or cells: S. cerevisiae strain MKY06 (all hexose transporters deleted), plasmid pTHStp2", "T2 sequence (Q9LNV3 1-498)": "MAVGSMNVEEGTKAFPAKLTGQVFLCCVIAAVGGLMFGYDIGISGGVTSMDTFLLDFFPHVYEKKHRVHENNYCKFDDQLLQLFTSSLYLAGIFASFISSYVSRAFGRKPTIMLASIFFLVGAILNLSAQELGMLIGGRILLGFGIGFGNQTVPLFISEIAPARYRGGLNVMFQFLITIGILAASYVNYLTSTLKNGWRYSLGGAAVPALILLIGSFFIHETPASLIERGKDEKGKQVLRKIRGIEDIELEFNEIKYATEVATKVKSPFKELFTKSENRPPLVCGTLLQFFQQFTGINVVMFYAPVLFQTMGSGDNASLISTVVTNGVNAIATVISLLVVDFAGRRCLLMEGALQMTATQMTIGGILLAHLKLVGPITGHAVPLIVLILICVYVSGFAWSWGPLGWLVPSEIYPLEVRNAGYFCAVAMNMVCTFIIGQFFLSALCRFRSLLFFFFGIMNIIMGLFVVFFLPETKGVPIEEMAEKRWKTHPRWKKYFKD", "assay": "Inhibition of Stp2-mediated L-arabinose uptake by added sugar", "conditions": "addition of 10 mM of the sugar", "experimental": "as §1, §2"}, "[3]": {"system": "strain MKY06-3P", "assay": "Sugar consumption / fermentation analysis by HPLC in SC medium under aerobic conditions", "conditions": "transporter overexpressed", "experimental": "(§3) Fermentation analysis of the MKY06-3P containing the plasmids p426-opt-AraT-S (A) or pTHSTp2 (B) in SC medium with 2% glucose under aerobic conditions. As controls the strain MKY06-3P was used containing the plasmids pHL125^re (positive) or p426HXT7-6HIS (negative). The strains with the various plasmids were adducted in SC medium with 2% glucose and inoculated with an OD600nm=1 in 50 ml SC medium. The incubation took place in 300 ml shaking flasks under aerobic conditions at 30° C. Samples were taken several times during the 120 hours to determine the sugar concentration via HPLC analysis.\nas §3, with “arabinose” for “glucose”, “analysis. […]” for “analysis.”\nThe samples taken in the tests were centrifuged for 10 min at 3000 R/min, in order to pellet the yeast cells. […] The sugar concentrations were measured by means of BioLC (Dionex). […]"}, "[4]": {"system": "D-glucose uptake, strain MKY06", "assay": "Initial rate of D-glucose uptake with radioactively labeled sugar in strain MKY06 overexpressing the transporter", "conditions": "10 mM D-glucose, 1 minute; empty-vector background subtracted", "experimental": "Initial rates of sugar uptake of strain MKY06 expressing Stp2 (AtStp2) or Gal2 (ScGal2). Cells were grown on D-galactose or maltose (empty vector), harvested and incubated with the radioactively labeled sugars: 10 mM L-arabinose (A), 10 mM D-galactose (B) and 10 mM D-glucose (C) for 2 minutes (L-arabinose) or 1 minute (D-galactose, D-glucose). The background values determined with cells containing the empty vector were subtracted.\nas §1, with “used.” for “used. After different time intervals 10 ml of ice-cold 100 mM potassium phosphate buffer at pH 6.5 with 500 mM. D-glucose was added, and the suspension was immediately filtrated using Durapore® membrane filters (0.22 μm pore size, Millipore). The filter was washed two times with 10 ml of cold potassium phosphate buffer with 500 mM D-glucose.”, “5.0. […]” for “5.0.”"}, "[5]": {"system": "L-arabinose uptake, strain MKY06", "assay": "L-arabinose uptake kinetics with radioactively labeled sugar in strain MKY06 overexpressing the transporter", "conditions": "L-arabinose as the substrate; 0.1-50 mM, 2-minute intervals", "experimental": "The initial rates of sugar uptake were measured as follows: a 50-0 aliquot of a sugar solution containing (1-^3H)-labeled L-arabinose, (U-^14C) labeled O-glucose (American Radiolabeled Chemicals Inc.) or (1-^14C) labeled D-galactose (Amersham) was incubated at 30° C. and was mixed with 100 μl of yeast suspensions having the same temperature, resulting in final sugar concentrations of 10 mM L-arabinose, D-glucose and D-galactose. For determination of L-arabinose uptake kinetics 0.1, 1, 5, 10, and 50 mM L-arabinose were used. After different time intervals 10 ml of ice-cold 100 mM potassium phosphate buffer at pH 6.5 with 500 mM. D-glucose was added, and the suspension was immediately filtrated using Durapore® membrane filters (0.22 μm pore size, Millipore). The filter was washed two times with 10 ml of cold potassium phosphate buffer with 500 mM D-glucose. Filters were transferred to 5 ml scintillation vials containing 4.5 ml. Rotiszint® eco plus (Roth) and the radioactivity measured in a scintillation counter. Uptake of radioactivity was nearly linear in time intervals up to 2 minutes. The results shown are average values for two to three independent experiments. Dry weight was determined by filtering 10 ml of the culture through a pre-weighted nitrocellulose filter (0.45 μm pore size; Roth, Germany). The filters were washed with demineralized water, dried in a microwave oven for 20 minutes at 140 W, and weighted again. KM and vmax values were calculated using the program GraphPad Prism 5.0.\nFor L-arabinose, uptake kinetics were determined by measuring L-arabinose uptake at various concentrations between 0.1 and 50 mM during 2-minute time intervals. While Gal2 turned out to transport L-arabinose with low affinity and high capacity, Stp2 mediated uptake of L-arabinose with low capacity but high affinity (Table 1)."}}}
{"molecule": "O=C[C@H](O)[C@@H](O)[C@@H](O)[C@H](O)CO", "note": "[D-galactose]", "values": [{"measurement": "Inhibition of L-arabinose uptake (Gal2)", "setting": "[1]", "result": "nearly completely inhibited"}, {"measurement": "Inhibition of L-arabinose uptake (Stp2)", "setting": "[2]", "result": "nearly completely inhibited"}]}
{"molecule": "O=C[C@H](O)[C@@H](O)[C@H](O)[C@H](O)CO", "note": "[D-glucose]", "values": [{"measurement": "Inhibition of L-arabinose uptake (Gal2)", "setting": "[1]", "result": "nearly completely inhibited"}, {"measurement": "Inhibition of L-arabinose uptake (Stp2)", "setting": "[2]", "result": "nearly completely inhibited"}]}
{"molecule": "AraT", "values": [{"measurement": "Glucose transport in the strain MKY06-3P", "setting": "[3]", "result": "small amounts of glucose"}]}
{"molecule": "Gal2: S. cerevisiae galactose permease Gal2, known to also transport L-arabinose (protein, UniProt P13181 1-574, looked up) Galactose transporter: MAVEENNMPVVSQQPQAGEDVISSLSKDSHLSAQSQKYSNDELKAGESGSEGSQSVPIEIPKKPMSEYVTVSLLCLCVAFGGFMFGWDTGTISGFVVQTDFLRRFGMKHKDGTHYLSNVRTGLIVAIFNIGCAFGGIILSKGGDMYGRKKGLSIVVSVYIVGIIIQIASINKWYQYFIGRIISGLGVGGIAVLCPMLISEIAPKHLRGTLVSCYQLMITAGIFLGYCTNYGTKSYSNSVQWRVPLGLCFAWSLFMIGALTLVPESPRYLCEVNKVEDAKRSIAKSNKVSPEDPAVQAELDLIMAGIEAEKLAGNASWGELFSTKTKVFQRLLMGVFVQMFQQLTGNNYFFYYGTVIFKSVGLDDSFETSIVIGVVNFASTFFSLWTVENLGHRKCLLLGAATMMACMVIYASVGVTRLYPHGKSQPSSKGAGNCMIVFTCFYIFCYATTWAPVAWVITAESFPLRVKSKCMALASASNWVWGFLIAFFTPFITSAINFYYGYVFMGCLVAMFFYVFFFVPETKGLSLEEIQELWEEGVLPWKSEGWIPSSRRGNNYDLEDLQHDDKPWYKAMLE", "values": [{"measurement": "D-glucose uptake rate", "setting": "[4]", "result": 4.7, "unit": "nmol/min/mg DM"}, {"measurement": "Km", "setting": "[5]", "result": 57, "unit": "mM"}, {"measurement": "vmax", "setting": "[5]", "result": "2.2 +/− 0.26 nmol/min/mg DM"}]}
{"molecule": "Stp2: transporter Stp2 from Arabidopsis thaliana, a protein of 498 amino acids (SEQ ID NO. 1) (protein, listed as Arabidopsis thaliana) MAVGSMNVEEGTKAFPAKLTGQVFLCCVIAAVGGLMFGYDIGISGGVTSMDTFLLDFFPHVYEKKHRVHENNYCKFDDQLLQLFTSSLYLAGIFASFISSYVSRAFGRKPTIMLASIFFLVGAILNLSAQELGMLIGGRILLGFGIGFGNQTVPLFISEIAPARYRGGLNVMFQFLITIGILAASYVNYLTSTLKNGWRYSLGGAAVPALILLIGSFFIHETPASLIERGKDEKGKQVLRKIRGIEDIELEFNEIKYATEVATKVKSPFKELFTKSENRPPLVCGTLLQFFQQFTGINVVMFYAPVLFQTMGSGDNASLISTVVTNGVNAIATVISLLVVDFAGRRCLLMEGALQMTATQMTIGGILLAHLKLVGPITGHAVPLIVLILICVYVSGFAWSWGPLGWLVPSEIYPLEVRNAGYFCAVAMNMVCTFIIGQFFLSALCRFRSLLFFFFGIMNIIMGLFVVFFLPETKGVPIEEMAEKRWKTHPRWKKYFKD", "values": [{"measurement": "D-glucose uptake rate", "setting": "[4]", "result": "< 0.01", "unit": "nmol/min/mg DM"}, {"measurement": "Km", "setting": "[5]", "result": 4.5, "unit": "mM"}, {"measurement": "vmax", "setting": "[5]", "result": "0.6 +/− 0.08 nmol/min/mg DM"}]}
